Laboratory results: publication PMC5497220 (2017)
Where no end group is shown, it is not given here.

Target: T1, Histone H3 (4-10) K9ac peptide 4-10 (Homo sapiens, UniProt P68431, not fully specified (residue 7))
T1 chain: TKQTARK
Assay: ITC

Kd: 30.1 µM
B1: ENL (protein)
chain: MDNQCTVQVRLELGHRAQLRKKPTTEGFTHDWMVFVRGPEQCDIQHFVEKVVFWLHDSFPKPRRVCKEPPYKVEESGYAGFIMPIEVHFKNKEEPRKVCFTYDLFLNLEGNPPVNHLRCEKLTFNNPTTEFRYKLLRAGGVMVMPEGADTVSRPSPDYPMLPTIPLSAFSDPKKTKPSHGSKDANKESSKTSKPHKVTKEHRERPRKDSESKSSSKELEREQAKSSKDTSRKLGEGRLPKEEKAPPPKAAFKEPKMALKETKLESTSPKGGPPPPPPPPPRASSKRPATADSPKPSAKKQKKSSSKGSRSAPGTSPRTSSSSSFSDKKPAKDKSSTRGEKVKAESEPREAKKALEVEESNSEDEASFKSESAQSSPSNSSSSSDSSSDSDFEPSQNHSQGPLRSMVEDLQSEESDEDDSSSGEEAAGKTNPGRDSRLSFSDSESDNSADSSLPSREPPPPQKPPPPNSKVSGRRSPESCSKPEKILKKGTYDKAYTDELVELHRRLMALRERNVLQQIVNLIEETGHFNVTNTTFDFDLFSLDETTVRKLQSCLEAVAT
